One molecule from patent publication US20240287165A1 (GENERAL HOSPITAL, published 2024) can be followed below.

Test [1] addresses T1, full-length wild type human ApoE3 recombinant protein (His-tagged) (human, UniProt P02649 19-317).
T1 construct: Recombinant protein from Innovagen; also called ApoE3 WT full-length protein; APOE3 WT; not shown: histidine tag
Nature of the test: BLI (BLItz), mAb 1H4 on protein A biosensor, run with 285.7 nM ApoE3, global fit. The protocol:
(§1) The binding affinity between ApoE3 and the monoclonal antibody 1H4 (mAb 1H4) was determined using the advanced kinetic module of the BLItz system (Blitz Pro, FB-609928, ver. 1.3.1.3). Briefly, a protein A biosensor was loaded with mAb 1H4 and both association and dissociation constants were determined at increasing concentrations of the full length ApoE3 protein (Innovagen) from 0 to 571.4 nM. The following running settings were used: 30 s initial baseline in the experimental media, 120 s loading of the ligand (mAb 1H4) on the biosensors, 30 s new baseline before association (120 s) and dissociation (120 s) steps. A total of 6 runs of 420 s at 2200 rpm and room temperature were conducted to determine the binding parameters of ApoE3. Global fitting and step corrections of the dissociation experiments were performed using the BLItz software (ver. 1.1.0.7). […] KD, Ka and Kd were measured (table 10) and calculated using the BLItz system. Top panel is representative of the association steps, the bottom panel is representative of the dissociation steps of the binding kinetic. The X and Y axes depicts time in second and binding in nM, respectively.

The target in test [2] is T1, full-length wild type human ApoE3 …. Briefly: BLI (BLItz), mAb 1H4 on protein A biosensor, run with 35.71 nM ApoE3, global fit; columns shifted: value stands under 'Ka Error' but is the kd (0.04142/2900000 = 14.28 nM). The procedure: as §1
The target is the same in test [3]. Briefly: BLI (BLItz), mAb 1H4 on protein A biosensor, run with 142.9 nM ApoE3, global fit; columns shifted: value stands under 'Ka Error' but is the kd (0.04142/2900000 = 14.28 nM). The protocol: as §1
The target is the same in test [4]. Briefly: BLI (BLItz), mAb 1H4 on protein A biosensor, run with 35.71 nM ApoE3, global fit. The protocol:
as §1

Test [5] deals with T2, full-length ApoE3ch (ApoE3 Christchurch R136S) mutant recombinant protein (His-tagged) (human, UniProt P02649 19-317).
T2 construct: also called ApoE3ch full length protein; APOE3ch Mutant; not shown: histidine tag
Nature of the test: ELISA of 1H4-2 subclone serum on ApoE3ch full length protein, O.D. 450 nm against dilution factor. For orientation: ELISA stands for enzyme-linked immunosorbent assay.

The target of test [6] is T1, full-length wild type human ApoE3 …. Briefly: BLI (BLItz), mAb 1H4 on protein A biosensor, run with 71.43 nM ApoE3, global fit. The protocol:
as §1

Test [7] has the same target. Nature of the test: BLI (BLItz), mAb 1H4 on protein A biosensor, run with 571.4 nM ApoE3, global fit. The protocol: as §1
Test [8] has the same target. Briefly: BLI (BLItz), mAb 1H4 on protein A biosensor, run with 71.43 nM ApoE3, global fit; columns shifted: value stands under 'Ka Error' but is the kd (0.04142/2900000 = 14.28 nM). The procedure:
as §1

Test [9] shares this target. Briefly: BLI (BLItz), mAb 1H4 on protein A biosensor, run with 285.7 nM ApoE3, global fit; columns shifted: value stands under 'Ka Error' but is the kd (0.04142/2900000 = 14.28 nM). The protocol:
as §1

For test [10], the target named is T3, ApoEch peptide KLH-CTEELRVSLASHLRK-CONH2 (human, not fully specified; C-terminal amide (CONH2); printed with KLH on the added N-terminal cysteine).
T3 construct: also called Mut peptide; mutant ApoE peptide
T3 peptide: CTEELRVSLASHLRK
Briefly: ELISA of 1H4-2 subclone serum on ApoE3ch peptide, O.D. 450 nm against dilution factor.

For test [11], the target named is T1, full-length wild type human ApoE3 …. Briefly: ELISA, parental hybridoma clone.
Test [12] has as its target T4, wild type ApoE peptide KLH-CTEELRVRLASHLRK-CONH2 (human, not fully specified; C-terminal amide (CONH2); printed with KLH on the added N-terminal cysteine).
T4 construct: also called WT peptide; ApoE3 WT peptide
T4 peptide: CTEELRVRLASHLRK
Nature of the test: ELISA, parental hybridoma clone.

Test [13] deals with T3, ApoEch peptide KLH-CTEELRVSLASHLRK-CONH2. Nature of the test: ELISA, parental hybridoma clone.
The target of test [14] is T2, full-length ApoE3ch (ApoE3 Christchurch …). Briefly: ELISA, parental hybridoma clone.
The target of test [15] is T1, full-length wild type human ApoE3 …. Briefly: BLI (BLItz), mAb 1H4 on protein A biosensor, run with 571.4 nM ApoE3, global fit; columns shifted: value stands under 'Ka Error' but is the kd (0.04142/2900000 = 14.28 nM). The protocol:
as §1

The target is the same in test [16]. Briefly: BLI (BLItz), mAb 1H4 on protein A biosensor, run with 142.9 nM ApoE3, global fit. The protocol: as §1
For the next test, the target named is T5, mouse recombinant ApoE (mouse, UniProt P08226 19-311).
T5 construct: also called mouse recombinant ApoE3; msApoE
T5 sequence (looked up): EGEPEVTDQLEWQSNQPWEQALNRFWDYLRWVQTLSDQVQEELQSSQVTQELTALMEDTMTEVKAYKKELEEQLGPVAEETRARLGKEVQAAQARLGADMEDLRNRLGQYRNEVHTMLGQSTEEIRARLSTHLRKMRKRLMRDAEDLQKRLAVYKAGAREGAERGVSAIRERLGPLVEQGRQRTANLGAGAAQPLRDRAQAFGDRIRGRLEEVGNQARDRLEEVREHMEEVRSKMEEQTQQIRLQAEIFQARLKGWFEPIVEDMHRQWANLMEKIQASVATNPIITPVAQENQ
Nature of the test: ELISA, His-tagged target on anti-His plate, serial antibody dilutions, anti-mouse HRP, O.D. 450 nm. The procedure: To test selectivity of the antibodies for huApoE3WT, huApoE3ch or msApoE, anti-his ELISA coated plates were incubated with 0.0025 μg/μL of the target protein for 2 h at R.T. under gentle shaking. Wells were washed 5 times with 1X wash buffer (R&D) and subsequently incubated with serial dilutions of Innovagen antibody of interest over night at 4° C. on a shaker (100 μL/well). The following day, wells were washed 5 times with sample buffer and incubated for 45 minutes using Rabbit-anti-mouse HRP-conjugated buffer (1:10,000; 100 μL/well; Abcam). After 5 more washes, plates were incubated with chromogen A+B 1:1 to initiate the colorimetric reaction (100 μL/well). The reaction was stopped with 2 N […] (R&D stop solution., 50 μL/well) and absorbance detected at 450 nm spectroscopically.

T1 sequence (P02649 19-317): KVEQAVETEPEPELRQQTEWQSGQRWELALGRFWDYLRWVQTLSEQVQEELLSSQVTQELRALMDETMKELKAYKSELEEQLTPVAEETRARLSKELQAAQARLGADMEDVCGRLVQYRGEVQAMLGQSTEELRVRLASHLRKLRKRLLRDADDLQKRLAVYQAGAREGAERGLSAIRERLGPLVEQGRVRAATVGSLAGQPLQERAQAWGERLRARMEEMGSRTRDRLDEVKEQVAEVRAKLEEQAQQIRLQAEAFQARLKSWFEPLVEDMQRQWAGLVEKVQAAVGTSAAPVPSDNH
T2 sequence (P02649 19-317 R154S): as the sequence (P02649 19-317) above, with R136S counted along it

B1: antibody 1H4-2 (antibody, V domains shown)
VH: EVKLVESGGGVVQPGGSLKLSCAASGFTFSSYTMSWVRQTPEKRLEWVAKIRNGGGITYYLDTLKGRFTISRDNAKNTLYLQMSSLKSEDTAIYFCARHYYGSEDYFDYWGQGTTLTVSS
VL: DNVLTQSPASLAVSLGQRATISCKASQSVDYDGDSYMNWYQQKPGQPPKVFIYAASNLESGIPARFSGSGSGTDFTLNIHPVEEEDAATYYCQQSNEDPWTFGGGTKLEIK
notes: also called mAb 1H4; monoclonal 1H4 antibody
B1: the Kd in test [1], in test [4], in [6], in test [7] and in [16] was 0.0143 µM throughout. The kon in test [1], in [4], in [6], in [7] and in test [16] was 2.9e+06 M⁻¹ s⁻¹ in each case. Also, the koff in test [2], in [3], in test [8], in test [9] and in test [15] was 0.0414 s⁻¹ in each case. The binding result in test [5] was “no binding (tested: 1:10 dilution)”; in test [10], “no binding (tested: 1:10 dilution)”; in the test with mouse recombinant ApoE, “no binding (tested: 1:500 dilution)”. Moreover, the “absorbance (ELISA)” value came to 2.11 absorbance in [11], 2.58 absorbance in test [12], 0.07 absorbance in [13] and 0.056 absorbance in test [14].
